B1: 5mer-923 (peptide)
peptide: KCWMK
B2: 5mer-634 (peptide)
peptide: RMMMR
B3: 5mer-631 (peptide)
peptide: RPANR
B4: 5mer-619 (peptide)
peptide: KCSFK
B5: 5mer-927 (peptide)
peptide: RDEDR
B6: 5mer-630 (peptide)
peptide: RITFR
B7: 5mer-928 (peptide)
peptide: KHMVR
B8: 5mer-637 (peptide)
peptide: KCDHK
B9: 5mer-627 (peptide)
peptide: KMSPK
B10: 5mer-921 (peptide)
peptide: KKKFK
B11: 5mer-933 (peptide)
peptide: RYMKK
B12: 5mer-929 (peptide)
peptide: KYTFR
B13: 5mer-926 (peptide)
peptide: RNCWK
B14: 5mer-623 (peptide)
peptide: KNTGR
B15: 5mer-925 (peptide)
peptide: KDCFK
B16: 5mer-916 (peptide)
peptide: RCHER
B17: 5mer-628 (peptide)
peptide: RYMDR
B18: 5mer-922 (peptide)
peptide: RMWKR
B19: 5mer-920 (peptide)
peptide: KPKIK
B20: 5mer-911 (peptide)
peptide: REHGK
B21: 5mer-931 (peptide)
peptide: RITER
B22: 5mer-639 (peptide)
peptide: KETWK
B23: 5mer-612 (peptide)
peptide: KCTDK
B24: 5mer-629 (peptide)
peptide: RPTNK
B25: 5mer-615 (peptide)
peptide: KCCNR
B26: 5mer-938 (peptide)
peptide: RIEFK
B27: 5mer-919 (peptide)
peptide: KNNIK
B28: 5mer-635 (peptide)
peptide: RMNGR
B29: 5mer-636 (peptide)
peptide: KDKGR
B30: 5mer-625 (peptide)
peptide: KMCDR
B31: 5mer-914 (peptide)
peptide: RPTMR
B32: 5mer-913 (peptide)
peptide: KHTFK
B33: 5mer-918 (peptide)
peptide: RNNVR
B34: 5mer-620 (peptide)
peptide: RCMHK
B35: 5mer-617 (peptide)
peptide: RYCAK
B36: 5mer-616 (peptide)
peptide: KFCPR
B37: 5mer-936 (peptide)
peptide: RNHKR
B38: 5mer-632 (peptide)
peptide: RFSHR
B39: 5mer-912 (peptide)
peptide: KKMGR
B40: 5mer-935 (peptide)
peptide: RETFK
B41: 5mer-937 (peptide)
peptide: KASNR
B42: 5mer-932 (peptide)
peptide: RTAWK
B43: 5mer-934 (peptide)
peptide: KMMMR
B44: 5mer-611 (peptide)
peptide: KDHIR
B45: 5mer-613 (peptide)
peptide: RAEFR
B46: 5mer-917 (peptide)
peptide: KCAPR
B47: 5mer-633 (peptide)
peptide: RAAKR
B48: 5mer-621 (peptide)
peptide: KKSMK
B49: 5mer-626 (peptide)
peptide: KICMR
B50: 5mer-622 (peptide)
peptide: RKPKR
B51: 5mer-614 (peptide)
peptide: RNTWK
B52: 5mer-638 (peptide)
peptide: KHCIR
B53: 5mer-924 (peptide)
peptide: RNEKK
B54: 5mer-915 (peptide)
peptide: KMTHR
B55: 5mer-624 (peptide)
peptide: KEHER
B56: 5mer-930 (peptide)
peptide: RAWVR
B57: 5mer-618 (peptide)
peptide: RMSWK

These binders were tested against acetylcholine receptor (assay: SPR, peptide at 10 uM, acetylcholine receptor immobilized on chip).
Work on B1 yielded a Binding affinity (RU) of 19 RU. Binder B2 has a Binding affinity (RU) of 26 RU. Work on B3 yielded a Binding affinity (RU) of 17 RU. Binder B4 has a Binding affinity (RU) of 19 RU. B5 was tested, and the Binding affinity (RU) was 19 RU. For B6, the Binding affinity (RU) was 30 RU. Work on B7 yielded a Binding affinity (RU) of 27 RU. Binder B8 has a Binding affinity (RU) of 28 RU. B9 was tested, and the Binding affinity (RU) was 30 RU. B10 showed a Binding affinity (RU) of 21 RU. For B11, the Binding affinity (RU) was 27 RU. B12 showed a Binding affinity (RU) of 28 RU. B13 was tested, and the Binding affinity (RU) was 22 RU. B14 was tested, and the Binding affinity (RU) was 19 RU. B15 showed a Binding affinity (RU) of 25 RU. B16 showed a Binding affinity (RU) of 12 RU. With B17 the Binding affinity (RU) was 19 RU. With B18 the Binding affinity (RU) was 14 RU. With B19 the Binding affinity (RU) was 15 RU. Work on B20 yielded a Binding affinity (RU) of 14 RU. Work on B21 yielded a Binding affinity (RU) of 11 RU. B22 was tested, and the Binding affinity (RU) was 13 RU. B23 was tested, and the Binding affinity (RU) was 23 RU. Work on B24 yielded a Binding affinity (RU) of 32 RU. B25 gave a Binding affinity (RU) of 20 RU. Binder B26 has a Binding affinity (RU) of 18 RU. Binder B27 has a Binding affinity (RU) of 32 RU. Work on B28 yielded a Binding affinity (RU) of 21 RU. With B29 the Binding affinity (RU) was 11 RU. For B30, the Binding affinity (RU) was 33 RU. B31 showed a Binding affinity (RU) of 26 RU. Binder B32 has a Binding affinity (RU) of 13 RU. B33 gave a Binding affinity (RU) of 12 RU. For B34, the Binding affinity (RU) was 23 RU. B35 showed a Binding affinity (RU) of 28 RU. In the case of B36, the Binding affinity (RU) is reported as 15 RU. B37 was tested, and the Binding affinity (RU) was 29 RU. With B38 the Binding affinity (RU) was 33 RU. For B39, the Binding affinity (RU) was 16 RU. B40 gave a Binding affinity (RU) of 32 RU. For B41, the Binding affinity (RU) was 21 RU. In the case of B42, the Binding affinity (RU) is reported as 27 RU. Work on B43 yielded a Binding affinity (RU) of 17 RU. With B44 the Binding affinity (RU) was 33 RU. B45 was tested, and the Binding affinity (RU) was 20 RU. For B46, the Binding affinity (RU) was 11 RU. Binder B47 has a Binding affinity (RU) of 20 RU. With B48 the Binding affinity (RU) was 13 RU. B49 showed a Binding affinity (RU) of 12 RU. B50 gave a Binding affinity (RU) of 22 RU. B51 gave a Binding affinity (RU) of 29 RU. B52 gave a Binding affinity (RU) of 33 RU. For B53, the Binding affinity (RU) was 27 RU. With B54 the Binding affinity (RU) was 28 RU. Work on B55 yielded a Binding affinity (RU) of 22 RU. In the case of B56, the Binding affinity (RU) is reported as 20 RU. Work on B57 yielded a Binding affinity (RU) of 19 RU.

From patent US20250011363A1, “OPTIMIZED SHORTENED PEPTIDE THAT BINDS TO ACETYLCHOLINE RECEPTOR, AND USE THEREOF” (SKINMED CO., LTD., priority 2021, published 2025)
